Biological target: aimp2_crigr AIMP2 (UniProt Q9WVM7)
Sequence (Q9WVM7 whole entry): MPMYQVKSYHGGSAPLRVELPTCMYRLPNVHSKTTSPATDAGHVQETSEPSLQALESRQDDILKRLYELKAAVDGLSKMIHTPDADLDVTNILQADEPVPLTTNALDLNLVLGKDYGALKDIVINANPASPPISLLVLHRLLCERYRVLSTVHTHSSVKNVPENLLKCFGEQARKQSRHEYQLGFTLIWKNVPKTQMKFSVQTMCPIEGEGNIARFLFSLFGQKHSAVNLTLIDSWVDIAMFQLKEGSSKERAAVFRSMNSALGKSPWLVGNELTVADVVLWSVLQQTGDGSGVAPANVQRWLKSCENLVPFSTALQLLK

Chain of Lysine--tRNA ligase (Cricetulus griseus (Chinese hamster)), P37879 F263V (P37879 whole entry F263V): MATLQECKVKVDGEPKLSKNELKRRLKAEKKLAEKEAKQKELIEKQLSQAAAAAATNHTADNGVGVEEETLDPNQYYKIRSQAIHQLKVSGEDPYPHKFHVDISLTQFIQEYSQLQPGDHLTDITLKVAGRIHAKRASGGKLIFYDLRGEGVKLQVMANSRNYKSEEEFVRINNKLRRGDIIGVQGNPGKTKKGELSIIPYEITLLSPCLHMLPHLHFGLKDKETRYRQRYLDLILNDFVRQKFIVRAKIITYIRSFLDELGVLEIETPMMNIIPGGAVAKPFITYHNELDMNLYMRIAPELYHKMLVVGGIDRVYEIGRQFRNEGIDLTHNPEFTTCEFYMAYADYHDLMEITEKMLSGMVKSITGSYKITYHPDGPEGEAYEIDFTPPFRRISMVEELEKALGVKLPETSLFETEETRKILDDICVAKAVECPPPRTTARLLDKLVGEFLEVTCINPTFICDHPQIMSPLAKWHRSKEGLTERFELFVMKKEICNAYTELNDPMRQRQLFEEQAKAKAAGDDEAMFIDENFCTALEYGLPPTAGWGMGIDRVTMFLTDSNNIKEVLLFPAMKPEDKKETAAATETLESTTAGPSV
Chain of Lysine--tRNA ligase (Cricetulus griseus (Chinese hamster)), P37879 P200L (P37879 whole entry P200L): as the sequence (P37879 whole entry F263V) above, with P200L, V263F counted along it

Row | Substance | effect of a mutation on the interaction
1 | Lysine--tRNA ligase (Cricetulus griseus (Chinese hamster)), P37879 F263V | decreasing interaction strength
2 | Lysine--tRNA ligase (Cricetulus griseus (Chinese hamster)), P37879 P200L | decreasing interaction strength

Reference: IntAct's records for PubMed 31116475
